Laboratory results from patent US20200339690A1 (JOUNCE THERAPEUTICS, published 2020).

How the values were obtained:
[1] = molecular target: T1, human LILRB2 expressed on cells (human, UniProt Q8N423 22-597); assay: HLA-G:LILRB2 blocking; HLA-G tetramer on primary human macrophages, flow cytometry
T1 construct: CHO-s cells over-expressing full-length human LILRB2, or primary human macrophages and dendritic cells; also called hLILRB2-CHO-s; hLILRB2+ CHO-s
Procedure: (§1) The potency of select humanized variants in blocking the interaction of HLA-G and HLA-A2 with primary human macrophage-expressed hLILRB2 were assessed. Primary human monocytes were differentiated into macrophages in the presence of M-CSF. After seven days of differentiation, 1×10⁵ HMDMs were plated in 96-well round-bottom tissue culture-treated plate and washed twice with 1×DPBS (Gibco) and then incubated with 50 μL primary antibody (anti-LILRB2 mAbs or control) prepared in FACS buffer (1×DPBS containing 2% HI-FBS (Sigma)+0.05% Sodium Azide). After incubation with mAbs for 30 minutes at 4° C., cells were washed twice in FACS buffer and then resuspended in 50 μL of FACS buffer containing 5 μg/mL APC-conjugated HLA-G or HLA-A2 tetramer (Fred Hutch). Cells were incubated protected from light for 30-60 minutes at 4° C. After incubation with tetramer, cells were washed in FACS buffer and re-suspended in fix buffer (1.5% paraformaldehyde diluted in 1×DPBS). Samples were analyzed using the Celesta flow cytometer analyzer (BD Biosciences).

[2] = molecular target: T1, human LILRB2 expressed on cells; assay: flow cytometry, binding to hLILRB2 CHOs
human LILRB2-His = human LILRB2-His (human, UniProt Q8N423 22-460); assay: SPR, Sierra Sensors MASS-2; antibody captured on anti-human Fc, LILRB2-His 65 to 0.27 nM, 1:1 Langmuir fit
Procedure: Using a Mass-2 (Sierra Sensors) high capacity amine chip preimmobilized with AffiniPure Goat Anti-Human IgG, Fcγ Fragment Specific antibody, humanized antibodies were captured on the anti-human surface and then binding to human LILRB2-His was measured by flowing six different concentrations from 65 to 0.27 nM of the analyte over the antibody surface. The anti-LILRB2 surface was removed (10 mM Glycine, pH 2.0) and recaptured between all concentrations or buffer only cycles. The data was analyzed using the Sierra Analyzer software (version 3.1.14). All curves were double subtracted and fit to a 1:1 Langmuir Fit.

human LILRB5 = molecular target: T2, human LILRB5 (human, UniProt O75023 24-590); assay: flow cytometry, LILRB5 CHOs
T2 construct: Over-expressed on CHO-s cells; also called hLILRB5
Procedure: (§2) To test for specificity to hLILRB2 and not towards any of the ten LILR family members, a multiplexed cell-based barcoding approach was used by staining cells with Far Red and/or Violet Cell Trace dyes (Thermo Scientific) according to manufacturer's protocol or left unstained. In brief, cells were washed twice with 1×DPBS and then incubated with diluted dye in 1×DPBS for 20 minutes at 37° C., mixing gently every 5-10 minutes. Dye labeling was quenched by adding equal volume of 100% HI-FBS (Sigma) to the cells. Note that LILRB1, LILRB2, LILRB3, LILRB4, and LILRB5 cell lines are also GFP-positive, while LILRA1, LILRA2, LILRA3, LILRA4, LILRA5, and LILRA6 cell lines are GFP-negative. The cells were then washed twice in 1×DPBS and then all 11 cell lines were combined per well in a 96-well round bottom tissue-culture treated plate. At least 25×10³ cells of each cell-line were plated per well. Cells were then re-suspended in primary antibody (anti-LILRB2 mAbs or control) prepared in FACS buffer (1×DPBS containing 2% HI-FBS (Sigma)+0.05% Sodium Azide). After incubation at 4° C. for 30 minutes, cells were washed twice with 1×DPBS and re-suspended in anti-human IgG-PE (BioLegend) diluted 1:200 in FACS buffer. Following a 30 minute incubation at 4° C., protected from light, cells were washed in 1×DPBS and re-suspended in fix buffer (1.5% paraformaldehyde diluted in 1×DPBS). Samples were analyzed using the Celesta flow cytometer analyzer (BD Biosciences). Geometric mean fluorescence intensity (gMFI) of PE was determined for each antibody across each cell line. Background MFI was detected with isotype control and relative binding of antibodies tested was measured as a fold over isotype.

[3] = molecular target: T1, human LILRB2 expressed on cells; assay: HLA-A2:LILRB2 blocking; HLA-A2 tetramer on primary human macrophages, flow cytometry
Procedure: as §1

human LILRA5 = molecular target: T3, human LILRA5 (human, UniProt A6NI73 42-299); assay: flow cytometry, LILRA5 CHOs
T3 construct: Over-expressed on CHO-s cells; also called hLILRA5
Procedure: as §2

human LILRA4 = molecular target: T4, human LILRA4 (human, UniProt P59901 24-499); assay: flow cytometry, LILRA4 CHOs
T4 construct: Over-expressed on CHO-s cells; also called hLILRA4
Procedure: as §2

human LILRA6 = molecular target: T5, human LILRA6 (human, UniProt Q6PI73 24-481); assay: flow cytometry, LILRA6 CHOs
T5 construct: Over-expressed on CHO-s cells; also called hLILRA6
Procedure: as §2

human LILRB1 = molecular target: T6, human LILRB1 (human, UniProt Q8NHL6 24-650); assay: flow cytometry, LILRB1 CHOs
T6 construct: Over-expressed on CHO-s cells; also called hLILRB1
Procedure: as §2

[4] = molecular target: T1, human LILRB2 expressed on cells; assay: cell-based or functional assay
human LILRA1 = molecular target: T7, human LILRA1 (human, UniProt O75019 17-489); assay: flow cytometry, LILRA1 CHOs
T7 construct: Over-expressed on CHO-s cells; also called hLILRA1
Procedure: as §2

human LILRA2 = molecular target: T8, human LILRA2 (human, UniProt Q8N149 24-483); assay: flow cytometry, LILRA2 CHOs
T8 construct: Over-expressed on CHO-s cells; also called hLILRA2
Procedure: as §2

human LILRB4 = molecular target: T9, human LILRB4 (human, UniProt Q8NHJ6 22-448); assay: flow cytometry, LILRB4 CHOs
T9 construct: Over-expressed on CHO-s cells; also called hLILRB4
Procedure: as §2

human LILRB3 = molecular target: T10, human LILRB3 (human, UniProt O75022 24-631); assay: flow cytometry, LILRB3 CHOs
T10 construct: Over-expressed on CHO-s cells; also called hLILRB3
Procedure: as §2

[5] = molecular target: T1, human LILRB2 expressed on cells; assay: flow cytometry, LILRB2 CHOs
human LILRA3 = molecular target: T11, human LILRA3 (human, UniProt Q8N6C8 24-439); assay: flow cytometry, LILRA3 CHOs
T11 construct: Over-expressed on CHO-s cells; also called hLILRA3
Procedure: as §2

T1 sequence (Q8N423 other isoform, or with tags, fused parts or gaps limits assumed): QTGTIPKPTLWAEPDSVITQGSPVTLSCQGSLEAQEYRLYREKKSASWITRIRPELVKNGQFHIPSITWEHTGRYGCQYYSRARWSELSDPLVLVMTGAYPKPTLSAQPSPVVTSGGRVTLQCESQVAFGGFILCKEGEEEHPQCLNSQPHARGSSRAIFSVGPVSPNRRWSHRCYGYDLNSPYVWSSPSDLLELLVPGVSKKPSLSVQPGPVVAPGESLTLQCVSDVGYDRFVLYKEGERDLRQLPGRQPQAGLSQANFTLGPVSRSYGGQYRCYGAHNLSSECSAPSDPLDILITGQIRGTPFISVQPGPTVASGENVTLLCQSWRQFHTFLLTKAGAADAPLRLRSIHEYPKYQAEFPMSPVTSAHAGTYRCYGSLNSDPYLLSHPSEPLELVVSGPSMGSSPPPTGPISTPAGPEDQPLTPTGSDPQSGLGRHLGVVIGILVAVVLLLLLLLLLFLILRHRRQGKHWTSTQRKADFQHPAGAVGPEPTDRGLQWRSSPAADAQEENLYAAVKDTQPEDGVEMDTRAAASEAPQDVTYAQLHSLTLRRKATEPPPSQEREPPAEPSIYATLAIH
T8 sequence (Q8N149 24-483 S135L limits assumed): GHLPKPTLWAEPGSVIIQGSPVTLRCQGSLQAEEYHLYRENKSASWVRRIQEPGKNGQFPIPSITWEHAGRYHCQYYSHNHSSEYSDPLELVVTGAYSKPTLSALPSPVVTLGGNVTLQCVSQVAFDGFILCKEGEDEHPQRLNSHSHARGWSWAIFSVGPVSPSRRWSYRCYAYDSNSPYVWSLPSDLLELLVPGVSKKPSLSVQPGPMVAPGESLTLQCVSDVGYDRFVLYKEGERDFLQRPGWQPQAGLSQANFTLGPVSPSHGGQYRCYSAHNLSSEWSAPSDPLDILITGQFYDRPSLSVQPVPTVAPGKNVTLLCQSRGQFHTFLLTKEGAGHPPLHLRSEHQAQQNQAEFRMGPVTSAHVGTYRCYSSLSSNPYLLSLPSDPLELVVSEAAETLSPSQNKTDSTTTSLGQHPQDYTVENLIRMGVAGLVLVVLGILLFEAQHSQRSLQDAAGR
T11 sequence (Q8N6C8 24-439 limits assumed): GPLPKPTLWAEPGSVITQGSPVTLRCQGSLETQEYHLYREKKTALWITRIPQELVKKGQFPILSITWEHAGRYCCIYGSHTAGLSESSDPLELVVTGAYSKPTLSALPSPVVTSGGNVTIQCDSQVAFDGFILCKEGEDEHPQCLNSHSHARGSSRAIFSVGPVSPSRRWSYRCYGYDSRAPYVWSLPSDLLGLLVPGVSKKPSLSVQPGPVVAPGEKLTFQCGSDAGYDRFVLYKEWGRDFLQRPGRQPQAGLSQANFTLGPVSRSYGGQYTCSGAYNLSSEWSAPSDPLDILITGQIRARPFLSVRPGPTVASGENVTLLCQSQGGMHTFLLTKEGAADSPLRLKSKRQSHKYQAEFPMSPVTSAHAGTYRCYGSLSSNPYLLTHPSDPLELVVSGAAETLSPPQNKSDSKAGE
T4 sequence (P59901 other isoform, or with tags, fused parts or gaps limits assumed): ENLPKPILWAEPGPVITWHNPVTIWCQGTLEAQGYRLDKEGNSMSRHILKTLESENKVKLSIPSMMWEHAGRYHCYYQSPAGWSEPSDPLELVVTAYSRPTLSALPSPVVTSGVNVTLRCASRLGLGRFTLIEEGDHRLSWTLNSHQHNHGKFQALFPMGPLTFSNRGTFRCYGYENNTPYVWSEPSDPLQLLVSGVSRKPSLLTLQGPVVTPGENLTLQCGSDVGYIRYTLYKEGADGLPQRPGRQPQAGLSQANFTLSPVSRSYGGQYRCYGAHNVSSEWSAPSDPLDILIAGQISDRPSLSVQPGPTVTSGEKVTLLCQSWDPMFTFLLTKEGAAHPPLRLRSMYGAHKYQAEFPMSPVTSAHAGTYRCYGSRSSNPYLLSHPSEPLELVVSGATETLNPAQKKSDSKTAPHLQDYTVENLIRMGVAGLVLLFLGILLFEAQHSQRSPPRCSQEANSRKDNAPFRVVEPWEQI
Sequence of human LILRB2-His (Q8N423 other isoform, or with tags, fused parts or gaps): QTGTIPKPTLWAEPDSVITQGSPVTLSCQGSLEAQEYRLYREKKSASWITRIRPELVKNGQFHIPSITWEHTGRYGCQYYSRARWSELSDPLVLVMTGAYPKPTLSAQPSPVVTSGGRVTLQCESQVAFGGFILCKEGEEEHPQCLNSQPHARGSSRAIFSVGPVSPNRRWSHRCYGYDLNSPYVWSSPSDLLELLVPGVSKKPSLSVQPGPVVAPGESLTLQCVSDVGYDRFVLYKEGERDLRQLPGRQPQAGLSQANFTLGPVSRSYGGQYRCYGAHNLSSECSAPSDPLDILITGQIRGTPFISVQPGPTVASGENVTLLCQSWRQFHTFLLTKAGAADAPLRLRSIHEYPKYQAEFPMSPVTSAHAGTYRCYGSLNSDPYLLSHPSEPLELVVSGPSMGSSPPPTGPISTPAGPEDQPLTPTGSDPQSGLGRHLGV
T6 sequence (Q8NHL6 24-650 limits assumed): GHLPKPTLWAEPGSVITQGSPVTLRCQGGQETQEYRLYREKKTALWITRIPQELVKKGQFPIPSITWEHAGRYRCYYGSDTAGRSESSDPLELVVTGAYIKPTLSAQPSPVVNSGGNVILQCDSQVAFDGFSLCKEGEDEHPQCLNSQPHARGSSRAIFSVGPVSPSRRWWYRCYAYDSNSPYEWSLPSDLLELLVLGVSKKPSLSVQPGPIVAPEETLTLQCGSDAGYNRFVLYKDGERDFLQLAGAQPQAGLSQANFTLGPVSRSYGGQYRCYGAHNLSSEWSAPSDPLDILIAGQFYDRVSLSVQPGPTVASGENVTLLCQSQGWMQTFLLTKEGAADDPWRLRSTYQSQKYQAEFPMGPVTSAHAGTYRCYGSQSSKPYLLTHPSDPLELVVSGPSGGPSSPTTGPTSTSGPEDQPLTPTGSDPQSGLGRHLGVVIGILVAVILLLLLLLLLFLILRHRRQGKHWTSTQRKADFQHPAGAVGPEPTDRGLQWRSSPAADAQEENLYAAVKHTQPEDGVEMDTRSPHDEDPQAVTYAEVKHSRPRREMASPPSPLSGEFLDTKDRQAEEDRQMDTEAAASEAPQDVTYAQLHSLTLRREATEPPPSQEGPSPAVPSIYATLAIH
T7 sequence (O75019 17-489 limits assumed): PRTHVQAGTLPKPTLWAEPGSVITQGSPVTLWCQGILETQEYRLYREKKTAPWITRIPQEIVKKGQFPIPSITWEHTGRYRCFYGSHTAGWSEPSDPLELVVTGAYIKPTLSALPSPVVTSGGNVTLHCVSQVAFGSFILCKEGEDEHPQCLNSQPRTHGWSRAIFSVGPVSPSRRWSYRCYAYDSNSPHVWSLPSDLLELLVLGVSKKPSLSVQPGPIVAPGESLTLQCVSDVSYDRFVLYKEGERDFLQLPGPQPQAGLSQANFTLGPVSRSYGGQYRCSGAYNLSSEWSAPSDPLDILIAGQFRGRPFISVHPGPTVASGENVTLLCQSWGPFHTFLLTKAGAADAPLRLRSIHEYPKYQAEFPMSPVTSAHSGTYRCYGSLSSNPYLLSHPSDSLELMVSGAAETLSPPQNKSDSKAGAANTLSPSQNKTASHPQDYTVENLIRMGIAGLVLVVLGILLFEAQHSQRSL
T5 sequence (Q6PI73 24-481 limits assumed): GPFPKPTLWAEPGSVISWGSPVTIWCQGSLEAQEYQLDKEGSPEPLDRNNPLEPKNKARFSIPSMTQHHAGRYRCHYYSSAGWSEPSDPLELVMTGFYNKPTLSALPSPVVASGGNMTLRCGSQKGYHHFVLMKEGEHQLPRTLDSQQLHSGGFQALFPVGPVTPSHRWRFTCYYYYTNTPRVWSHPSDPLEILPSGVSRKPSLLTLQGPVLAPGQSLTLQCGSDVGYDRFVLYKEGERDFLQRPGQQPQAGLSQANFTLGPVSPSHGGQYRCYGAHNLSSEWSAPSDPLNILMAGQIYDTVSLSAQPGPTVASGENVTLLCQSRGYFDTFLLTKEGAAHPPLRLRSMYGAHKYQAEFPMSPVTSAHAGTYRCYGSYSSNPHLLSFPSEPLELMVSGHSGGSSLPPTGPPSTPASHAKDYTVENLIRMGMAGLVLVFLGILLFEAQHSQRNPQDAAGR
T2 sequence (O75023 24-590 P542R limits assumed): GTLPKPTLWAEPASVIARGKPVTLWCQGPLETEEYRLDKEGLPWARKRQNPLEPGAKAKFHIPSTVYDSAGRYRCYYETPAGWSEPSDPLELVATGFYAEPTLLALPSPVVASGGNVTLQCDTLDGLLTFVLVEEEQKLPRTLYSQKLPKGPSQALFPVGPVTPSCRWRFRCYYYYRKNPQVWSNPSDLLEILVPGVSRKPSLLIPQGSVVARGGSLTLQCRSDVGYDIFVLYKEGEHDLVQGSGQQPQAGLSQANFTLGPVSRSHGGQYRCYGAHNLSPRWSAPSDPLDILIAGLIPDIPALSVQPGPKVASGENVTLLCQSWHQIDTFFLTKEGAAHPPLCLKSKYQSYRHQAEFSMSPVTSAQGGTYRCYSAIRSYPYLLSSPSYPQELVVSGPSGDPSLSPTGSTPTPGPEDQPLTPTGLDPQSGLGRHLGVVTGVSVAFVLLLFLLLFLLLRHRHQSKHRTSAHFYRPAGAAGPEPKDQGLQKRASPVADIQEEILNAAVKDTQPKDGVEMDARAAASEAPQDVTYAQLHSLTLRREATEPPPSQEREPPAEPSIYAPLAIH
T3 sequence (A6NI73 42-299 limits assumed): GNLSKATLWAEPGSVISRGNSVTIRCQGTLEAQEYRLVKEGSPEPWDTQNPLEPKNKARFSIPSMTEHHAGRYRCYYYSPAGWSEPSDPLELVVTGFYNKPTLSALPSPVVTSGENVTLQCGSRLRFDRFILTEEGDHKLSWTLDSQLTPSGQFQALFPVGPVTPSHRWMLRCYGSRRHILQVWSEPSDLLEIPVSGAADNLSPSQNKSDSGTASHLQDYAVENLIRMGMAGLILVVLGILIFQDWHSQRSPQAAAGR

| Binder | EC50 [1] | EC50 [2] | Kd (human LILRB2-His) | koff (human LILRB2-His) | kon (human LILRB2-His) | binding (fold over iso) (human LILRB5) | binding result (human LILRB5) | EC50 [3] | binding (fold over iso) (human LILRA4) | binding result (human LILRA4) | binding (fold over iso) (human LILRA6) | binding result (human LILRA6) | binding (fold over iso) (human LILRB1) | binding result (human LILRB1) | EC50, IL-6 production by LPS-stimulated HMDMs [4] | EC50, TNFa production by LPS-stimulated HMDMs [4] | IC50, CCL2 production by LPS-stimulated HMDMs [4] | IC50, IL-10 production by LPS-stimulated HMDMs [4] | binding (fold over iso) (human LILRA1) | binding result (human LILRA1) | also measured |
| --- | --- | --- | --- | --- | --- | --- | --- | --- | --- | --- | --- | --- | --- | --- | --- | --- | --- | --- | --- | --- | --- |
| J-19.h1 (antibody, human IgG4 S228P, kappa, V domains shown, Humanized, human IgG4 backbone) VH: QITLKESGPTLVKPTQTLTLTCTFSGFSLNTYAMGVSWIRQPPGKALEWLASIWWNGNKYNNPSLKSRLTVTKDTSKNQVVLTMTNMDPVDTATYYCAHSRIIRFTDYVMDAWGQGTLVTVSS VL: DIQMTQSPSSLSTSVGDRVTITCRASEDIYNDLAWYQQKPGKAPKLLIYNANSLHTGVASRFSGSGSGTDFTFTISSLQPEDVATYFCQQYYDYPLTFGQGTKLEIKR | 0.162 nM | 0.032 nM | 2.73 nM | 0.00107 s⁻¹ | 391000 M⁻¹ s⁻¹ | 1.01 fold over iso | no binding | 0.083 nM | 0.95 fold over iso | no binding | 0.98 fold over iso | no binding | 0.79 fold over iso | no binding | 0.085 nM | 0.076 nM | 0.005 nM | 0.45 nM | 0.95 fold over iso | no binding | binding (fold over iso) (human LILRA5): 1.34 fold over iso; binding result (human LILRA5): no binding; binding (fold over iso) (human LILRA2): 0.88 fold over iso; binding result (human LILRA2): no binding; binding (fold over iso) (human LILRB4): 1.22 fold over iso; binding result (human LILRB4): no binding; binding (fold over iso) (human LILRB3): 1 fold over iso; binding result (human LILRB3): no binding; binding (fold over iso) [5]: 73.2 fold over iso; binding (fold over iso) (human LILRA3): 0.97 fold over iso; binding result (human LILRA3): no binding |
| J-19.h3 (antibody, human IgG4 S228P, kappa, V domains shown, Humanized, human IgG4 backbone) VH: QVTLKESGPSLVKPTQTLTLTCTFSGFSLNTYAMGVSWIRQPPGKALEWLASIWWNGNKYNNPSLKSRLTITKDTSKNQVVLKVTNMDPADTATYYCAHSRIIRFTDYVMDAWGQGTTVTVSS VL: DIVMTQSPSSLSASVGDTVTITCRASEDIYNDLAWYQQKPGKAPQLLLYNANSLHTGVPSRFSGSGSGTDYTLTISTLQPEDFATYYCQQYYDYPLTFGPGTKVHIKR | 0.113 nM | 0.0325 nM | 1.96 nM | 0.00101 s⁻¹ | 518000 M⁻¹ s⁻¹ | 0.95 fold over iso | no binding | 0.103 nM | 0.99 fold over iso | no binding | 1.03 fold over iso | no binding | 0.84 fold over iso | no binding | 0.083 nM | 0.087 nM | 5.9 nM | 0.27 nM | 1 fold over iso | no binding | binding (fold over iso) (human LILRA5): 1.22 fold over iso; binding result (human LILRA5): no binding; binding (fold over iso) (human LILRA2): 0.83 fold over iso; binding result (human LILRA2): no binding; binding (fold over iso) (human LILRB4): 1.16 fold over iso; binding result (human LILRB4): no binding; binding (fold over iso) (human LILRB3): 0.97 fold over iso; binding result (human LILRB3): no binding; binding (fold over iso) [5]: 79.4 fold over iso; binding (fold over iso) (human LILRA3): 0.92 fold over iso; binding result (human LILRA3): no binding |
| J-19.h4 (antibody, human IgG4 S228P, kappa, V domains shown, Humanized, human IgG4 backbone) VH: QVTLKESGPALVKPTHTLTLTCTFSGFSLNTYAMGVSWIRQPPGKALEWLASIWWNGNKYNNPSLKSRLTISKDTSKNQVVLTMTNMDPEDTATFYCAHSRIIRFTDYVMDAWGRGTTVTVSS VL: DIVMTQSPSSLSASVGDTVTITCRASEDIYNDLAWYQQKPGKAPQLLLYNANSLHTGVPSRFSGSGSGTDYTLTISTLQPEDFATYYCQQYYDYPLTFGPGTKVHIKR | 0.131 nM | 0.00175 nM | 2.33 nM | 0.0012 s⁻¹ | 513000 M⁻¹ s⁻¹ | 1.27 fold over iso | no binding | 0.106 nM | 1.09 fold over iso | no binding | 1.27 fold over iso | no binding | 0.87 fold over iso | no binding | 0.091 nM | 0.084 nM | 0.01 nM | 0.19 nM | 0.99 fold over iso | no binding | binding (fold over iso) (human LILRA2): 0.96 fold over iso; binding result (human LILRA2): no binding; binding (fold over iso) (human LILRB3): 1.24 fold over iso; binding result (human LILRB3): no binding; binding (fold over iso) [5]: 76.5 fold over iso; binding (fold over iso) (human LILRA3): 0.99 fold over iso; binding result (human LILRA3): no binding |
